Positions count from the first letter of the chain named. Numbers in names are those of the source. Blank lines part the entries; values can stand above or below the binder they belong to.
Legend:
[1] = molecular target: T1, PRLR stably expressed on Ba/F3 cells (Ba/F3-PRLR) (UniProt P16471 25-622, limits assumed); test: cell-based or functional assay
T1 sequence (looked up): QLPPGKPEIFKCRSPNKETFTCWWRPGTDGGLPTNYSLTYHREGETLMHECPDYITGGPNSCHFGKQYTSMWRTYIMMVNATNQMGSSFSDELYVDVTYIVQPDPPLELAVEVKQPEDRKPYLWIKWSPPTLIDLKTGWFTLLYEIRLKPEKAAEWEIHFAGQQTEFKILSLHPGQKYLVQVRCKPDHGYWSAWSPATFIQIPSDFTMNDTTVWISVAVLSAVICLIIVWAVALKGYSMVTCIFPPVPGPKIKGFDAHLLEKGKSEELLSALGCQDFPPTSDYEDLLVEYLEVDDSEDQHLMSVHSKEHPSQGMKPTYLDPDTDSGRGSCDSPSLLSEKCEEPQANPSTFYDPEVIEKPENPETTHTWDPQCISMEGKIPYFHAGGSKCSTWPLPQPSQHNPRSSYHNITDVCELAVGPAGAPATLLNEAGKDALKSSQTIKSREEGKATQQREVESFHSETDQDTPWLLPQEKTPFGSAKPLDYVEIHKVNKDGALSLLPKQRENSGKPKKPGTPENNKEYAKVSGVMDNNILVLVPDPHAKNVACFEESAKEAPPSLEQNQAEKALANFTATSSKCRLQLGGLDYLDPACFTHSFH

[2] = molecular target: T2, Biotinylated prolactin receptor BirATag-Ser-PRLR (1-210) (human, UniProt P16471 25-234, biotinylated (BirA tag, biotin added during expression in E. coli)); test: Biacore SPR, BirATag-Ser-PRLR (1-210) immobilised on a CM5 chip, PRL analogues 1.6-25 nM
T2 construct: range 1-210; also called BirA-Ser-PRLR (1-210); not shown: BirA tag (biotin acceptor tag)
T2 sequence: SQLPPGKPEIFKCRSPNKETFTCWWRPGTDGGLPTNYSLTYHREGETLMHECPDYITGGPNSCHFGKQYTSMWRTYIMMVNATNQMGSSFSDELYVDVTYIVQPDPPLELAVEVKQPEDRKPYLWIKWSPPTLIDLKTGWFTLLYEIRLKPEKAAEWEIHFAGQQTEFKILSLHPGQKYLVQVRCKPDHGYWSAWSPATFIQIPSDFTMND
Experimental: (§1) Biotinylated prolactin receptor BirATag-Ser-PRLR (1-210) was diluted to 20 μg/ml in 10 mM sodium acetate pH 4.0 (Biacore BR-1003-49) and immobilized on the CM5 chip (Biacore BR-1006-68) with the immobilization reagents 1-ethyl-3-(3-dimethylaminopropyl) carbodiimide hydrochloride (EDC), N-hydroxysuccinimide (NHS) and 1.0 M ethanolamine-HCl pH 8.5 (Biacore BR1000-50). The immobilization level was 1500 RU. The PRL analogues were diluted to a series of concentrations as following: 1.6/3.13/6.25/12.5/25 nM and run through the PRLR immobilized chip using HBS-EP (10 mM HEPES pH 7.4; 150 mM NaCl; 3 mM EDTA; 0.005% v/v Tween-20) as the running buffer under the following conditions: […]

[3] = molecular target: T1, PRLR stably expressed on Ba/F3 cells …; test: cell-based or functional assay; remark: listed apart in the source
[4] = molecular target: T2, Biotinylated prolactin receptor …; test: SPR (Biacore); biotinylated BirATag-Ser-PRLR (1-210) amine-coupled to CM5 chip, control injected at 3.13-50 nM; STDEV 1.63; one value under a double label
Experimental: as §1, with “on a” for “on the”, “PRL variants prepared as described in Example 5” for “PRL analogues”, “following: 3.13/6.25/12.5/25/50” for “following: 1.6/3.13/6.25/12.5/25”

[5] = molecular target: T2, Biotinylated prolactin receptor …; test: SPR (Biacore); BirATag-Ser-PRLR (1-210) on CM5 chip, analogue injected at 1.6-25 nM (FIG. 5)
Experimental: as §1

[6] = molecular target: T2, Biotinylated prolactin receptor …; test: SPR (Biacore); biotinylated BirATag-Ser-PRLR (1-210) amine-coupled to CM5 chip, variant injected at 3.13-50 nM; STDEV 0.000
Experimental: as §1, with “on a” for “on the”, “PRL variants prepared as described in Example 5” for “PRL analogues”, “following: 3.13/6.25/12.5/25/50” for “following: 1.6/3.13/6.25/12.5/25”

[7] = molecular target: T2, Biotinylated prolactin receptor …; test: SPR (Biacore); biotinylated BirATag-Ser-PRLR (1-210) amine-coupled to CM5 chip, variant injected at 3.13-50 nM; STDEV 0.17
Experimental: as §1, with “on a” for “on the”, “PRL variants prepared as described in Example 5” for “PRL analogues”, “following: 3.13/6.25/12.5/25/50” for “following: 1.6/3.13/6.25/12.5/25”

[8] = molecular target: T2, Biotinylated prolactin receptor …; test: SPR (Biacore); biotinylated BirATag-Ser-PRLR (1-210) amine-coupled to CM5 chip, variant injected at 3.13-50 nM; STDEV 0.44
Experimental: as §1, with “on a” for “on the”, “PRL variants prepared as described in Example 5” for “PRL analogues”, “following: 3.13/6.25/12.5/25/50” for “following: 1.6/3.13/6.25/12.5/25”

[9] = molecular target: T2, Biotinylated prolactin receptor …; test: SPR (Biacore); biotinylated BirATag-Ser-PRLR (1-210) amine-coupled to CM5 chip, variant injected at 3.13-50 nM; STDEV 0.042
Experimental: as §1, with “on a” for “on the”, “PRL variants prepared as described in Example 5” for “PRL analogues”, “following: 3.13/6.25/12.5/25/50” for “following: 1.6/3.13/6.25/12.5/25”

[10] = molecular target: T2, Biotinylated prolactin receptor …; test: SPR (Biacore); biotinylated BirATag-Ser-PRLR (1-210) amine-coupled to CM5 chip, variant injected at 3.13-50 nM; STDEV 0.28
Experimental: as §1, with “on a” for “on the”, “PRL variants prepared as described in Example 5” for “PRL analogues”, “following: 3.13/6.25/12.5/25/50” for “following: 1.6/3.13/6.25/12.5/25”

[11] = molecular target: T2, Biotinylated prolactin receptor …; test: SPR (Biacore); biotinylated BirATag-Ser-PRLR (1-210) amine-coupled to CM5 chip, variant injected at 3.13-50 nM; STDEV 0.29
Experimental: as §1, with “on a” for “on the”, “PRL variants prepared as described in Example 5” for “PRL analogues”, “following: 3.13/6.25/12.5/25/50” for “following: 1.6/3.13/6.25/12.5/25”

[12] = molecular target: T2, Biotinylated prolactin receptor …; test: SPR (Biacore); biotinylated BirATag-Ser-PRLR (1-210) amine-coupled to CM5 chip, variant injected at 3.13-50 nM; STDEV 0.092
Experimental: as §1, with “on a” for “on the”, “PRL variants prepared as described in Example 5” for “PRL analogues”, “following: 3.13/6.25/12.5/25/50” for “following: 1.6/3.13/6.25/12.5/25”

binding result [2]: binds
B2: PRL S61A, Q71A, Q73A, G129R (ligand)
prolactin variant: LPICPGGAARCQVTLRDLFDRAVVLSHYIHNLSSEMFSEFDKRYTHGRGFITKAINSCHTASLATPEDKEAAAQMNQKDFLSLIVSILRSWNEPLYHLVTEVRGMQEAPEAILSKAVEIEEQTKRLLERMELIVSQVHPETKENEIYPVWSGLPSLQMADEESRLSAYYNLLHCLRRDSHKIDNYLKLLKCRIIHNNNC
notes: It is not in the first reading's list; also called rational designed mutant

EC50, Ba/F3-PRLR proliferation assay [1]: 3.2 nM
highest proliferation rate relative to wtPRL, Ba/F3-PRLR proliferation assay [1]: 12 % of wtPRL
EC50 (so in the source); inhibition of proliferation of Ba/F3-PRLR cells stimulated with 1 nM wtPRL, OD490nM [3]: 64.6 nM
LOGEC50 (same fit) [3]: -7.19 LogM
Kd [4]: 13.9 nM
B3: PRL G129R (ligand)
chain: B2 prolactin variant with A61S, A71Q, A73Q
notes: also called [2H,15N]PRL-G129R; [2H,13C,15N]PRL-G129R

antagonist activity relative to [PRL G129R], Ba/F3-PRLR competition assay against 1 nM wtPRL [1]: ~4 fold
EC50 (so in the source); inhibition of proliferation of Ba/F3-PRLR cells stimulated with 1 nM wtPRL, OD490nM [3]: 13.8 nM
LOGEC50 (same fit) [3]: -7.86 LogM
fold higher affinity than wt PRL and [PRL G129R] [5]: ~2 fold
B6: [PRL Q73L, M75T, N76S, F80L, G129R] (ligand)
chain: B2 prolactin variant with A61S, A71Q, A73L, M75T, N76S, F80L
notes: also called HTPN-62

Kd [8]: 3.8 nM
B10: Ser-PRL S33A, Q73L, G129R, K190R, I194V, H195Y, N196R, N197D (ligand)
chain: SLPICPGGAARCQVTLRDLFDRAVVLSHYIHNLASEMFSEFDKRYTHGRGFITKAINSCHTSSLATPEDKEQALQMNQKDFLSLIVSILRSWNEPLYHLVTEVRGMQEAPEAILSKAVEIEEQTKRLLERMELIVSQVHPETKENEIYPVWSGLPSLQMADEESRLSAYYNLLHCLRRDSHKIDNYLKLLRCRIVYRDNC

Kd [9]: 3.2 nM
B11: Ser-PRL G129R, K190R, I194V, H195Y, N196R, N197D (ligand)
chain: B10 chain with A34S, L74Q

Kd [11]: 3.1 nM
B13: Ser-PRL S38I, D68N, G129R, S179T, I182V (ligand)
chain: SLPICPGGAARCQVTLRDLFDRAVVLSHYIHNLSSEMFIEFDKRYTHGRGFITKAINSCHTSSLATPENKEQAQQMNQKDFLSLIVSILRSWNEPLYHLVTEVRGMQEAPEAILSKAVEIEEQTKRLLERMELIVSQVHPETKENEIYPVWSGLPSLQMADEESRLSAYYNLLHCLRRDTHKVDNYLKLLKCRIIHNNNC

The next lines start with the binder.

B1: wild type human prolactin (ligand)
chain: B2 prolactin variant with A61S, A71Q, A73Q, R129G
EC50, Ba/F3-PRLR proliferation assay [1]: 0.102 nM
EC50, stimulation (proliferation) assay, Ba/F3-PRLR cell line PRLR-09 [1]: 0.054 nM
EC50, stimulation (proliferation) assay, Ba/F3-PRLR cell line PRLR-32 [1]: 0.0375 nM

B4: [PRL S33A, Q73L, G129R, K190R] (ligand)
chain: B2 prolactin variant with S33A, A61S, A71Q, A73L, K190R
fold higher affinity than wt PRL and [PRL G129R] [5]: ~2 fold

B5: PRL S61A, D68N, G129R, K190R (ligand)
chain: B2 prolactin variant with D68N, A71Q, A73Q, K190R
notes: Printed without the prefix Ser-; No. 23 carries the same substitutions with Ser-
Kd [6]: 1.4 nM

B7: Ser-PRL Q73L, G129R, K190R (ligand)
chain: B10 chain with A34S, V195I, Y196H, R197N, D198N
Kd [7]: 2.6 nM

B8: Ser-PRL G129R (ligand)
chain: B13 chain with I39S, N69D, T180S, V183I
notes: The control row gives one KD under the double label 'PRL G129R/Ser-PRL G129R'
Kd [4]: 13.9 nM

B9: Ser-PRL S33D, Q73L, M75T, N76S, F80L, G129R, K190R (ligand)
chain: B10 chain with A34D, M76T, N77S, F81L, V195I, Y196H, R197N, D198N
Kd [7]: 3.1 nM

B12: Ser-PRL Q73L M75T N76S F80L G129R (ligand)
chain: B13 chain with I39S, N69D, Q74L, M76T, N77S, F81L, T180S, V183I
Kd [10]: 3.6 nM

B14: Ser-PRL K42R, Q73L, G129R, K190R (ligand)
chain: B10 chain with A34S, K43R, V195I, Y196H, R197N, D198N
Kd [12]: 2.6 nM

Source: patent US20100249029A1 (Novo Nordisk, published 2010)
